Measurements as given in patent US20130143822A1, “AGENTS FOR TREATING ALZHEIMER'S DISEASE” (priority 2010, published 2013).

Assays:
[1] = molecular target: T1, Aβ (Homo sapiens, UniProt P05067); experiment: Seeding test: amyloidogenic properties of Aβ-L3 aggregates by ThT fluorescence over time; format: biochemical; details: seeds 20% v/v added to freshly prepared Aβ, compared with Aβ without seeds
T1 construct: joint stock solutions made of 25 μM Aβ (light bars) and 25 μM Aβ with 1 mM L3
Procedure: Amyloidogenic seeds are particles which act as “nuclei” and expedite the aggregation process. With regard to the aggregation of Aβ, it is known that existing Aβ oligomers/seeds considerably expedite the aggregation process of monomers. For the experiment, seeds were produced which consisted of Aβ (triangles) and such, which consisted of Aβ and L3 (squares). After incubating Aβ and A-L3 mixtures for 5 days, the seeds were centrifuged off and washed. The seeds (20% v/v) were added to freshly prepared Aβ in the ThT test. Aβ without seeds (rhombi) were measured for control purposes. […] This is an indication that Aβ-D3 aggregates no longer have amyloid structures.

[2] = molecular target: T1, Aβ; experiment: Turbidimetric test of Aβ aggregation (absorption at 355 nm); format: biochemical; details: 25 μM Aβ with 1 mM L3
Procedure: (§1) Both tests were prepared from joint stock solutions made of 25 μM Aβ (light bars) and 25 μM Aβ with 1 mM L3 (dark bars). In the ThT test, 5 μl of the solutions was mixed with 200 μl ThT solution (5 μM ThT; 50 mM glycerin pH 8.5) and measured at λex 440 nm and λem=490 nm in the fluorescence spectrometer. ThT is a dye which, when bound to regular fibrils, has higher fluorescence and therefore serves as a measure of the fibrillation. In the turbidimetric test, the clouding of the solution was measured in the UV/VIS spectrometer as a measure of the aggregation as absorption at 355 nm.

[3] = molecular target: Aβ1-42 oligomeric particles (Homo sapiens, UniProt P05067); experiment: Dynamic light scattering, hydrodynamic radius of Aβ1-42 particles; format: biochemical; details: 5 μM Aβ1-42 oligomeric particles, 50 μM L3, immediately and after 20 minutes, 25° C.
Sequence of Aβ1-42 oligomeric particles (P05067 672-713 limits assumed): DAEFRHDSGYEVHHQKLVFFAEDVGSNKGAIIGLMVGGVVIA
Procedure: Dynamic light scattering is used to determine the hydrodynamic radius of particles in solution or suspension. A 5 μM sample of Aβ1-42 oligomeric particles was diluted by adding a 50 μM L3 sample on the one hand, and buffer (50 mM sodium phosphate, 100 mM NaCl, pH 7.4) on the other hand. The hydrodynamic radius of the Aβ1-42 particles with and without L3 was measured using a DynaPro light scattering system, immediately after the sample was prepared and after 20 minutes. A 655.6 nm laser (13 mW/58% laser intensity) was used. The measuring time was 2 seconds, and the measurement temperature was 25° C. Spherical sedimented particles were assumed for calculating the hydrodynamic radius.

[4] = molecular target: Aβ1-42 oligomers (Homo sapiens, UniProt P05067); experiment: Surface plasmon resonance, Aβ1-42 monomers, oligomers and fibrils immobilized on a CM5 biosensor chip; format: binding
Sequence of Aβ1-42 oligomers (P05067 672-713 limits assumed): as above
Procedure: L3 is shown in section A and D3 is shown in section B of the figure. […] Aβ1-42 monomers (dashed lines), oligomers (solid lines) and fibrils (dotted line) were immobilized on a CM5 biosensor chip. Interaction analyses were carried out by means of surface […]. RU: resonance units. In each case, 25 μl peptide solution (100 μg/ml) was injected. […] The same results are also obtained for Aβ1-40 oligomers.

[5] = molecular target: T1, Aβ; experiment: Thioflavin T test of Aβ aggregation; format: biochemical; details: 25 μM Aβ with 1 mM L3
Procedure: as §1

[6] = molecular target: Aβ1-42 (Homo sapiens, UniProt P05067); experiment: Density gradient centrifugation (iodixanol gradient 5-50%) of Aβ-peptide mixtures, SDS-PAGE and silver staining; format: biochemical; details: 125 μM Aβ and 125 mM peptide
Sequence of Aβ1-42 (P05067 672-713 limits assumed): as above
Procedure: L3 precipitates Aβ oligomers from complex mixtures of different Aβ forms. The size distributions of Aβ in solution and in Aβ-peptide mixtures were examined by way of sedimentation analysis on an iodixanol gradient (5-50%). The mixtures contained 125 μM Aβ and 125 mM peptide, respectively. After centrifugation, 14 fractions of 140 μl each were obtained from the surface by sequential pipetting and analyzed by means of denatured polyacrylamide gel electrophoresis SDS-PAGE and subsequent silver staining. […] Large aggregates form, which in subsequent experiments are described as amorphous, not fibrillary and not amyloidogenic.

[7] = SPR, 25 μl peptide solution (100 μg/ml) injected

T1 sequence (P05067 672-713 limits assumed): as above

L3: L3 peptide, which according to the invention binds to Aβ oligomers (LRMMLQIKRIPR)
acceleration of Aβ aggregation by seeds composed of Aβ and L3 [1]: do not result in any accelerated aggregation | development of Aβ aggregates (clouding) [2]: fast development of large Aβ aggregates | formation of large Aβ aggregates (hydrodynamic radius) [3]: favorable in terms of the fast formation of large Aβ aggregates | binding to Aβ1-42 oligomers [4, 7]: very clear binding | maximum resonance (RU) compared with D3 [4, 7]: higher maximum resonance than D3 | binding strength compared with D3 ([4]; SPR, FIG. 1): stronger binding than D3 | binding to the Aβ peptide compared with peptide D3 ([4]; general statement): better binding | ThT test result of the Aβ aggregates (fibrillary structure) [5]: negative | content of Aβ oligomers after density gradient centrifugation [6]: significantly reduce | reduction of Aβ oligomer content compared with D3 ([6]; at the analyzed time): to a greater degree than D3
